Measured values: the nanobody polyreactivity screen of Harvey et al. (2022)

Test: yeast display, Sf9 membrane polyspecificity reagent, FACS + sequencing; frameworks hold sequencing errors
Procedure, shortened: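 After 36–48 hours of galactose induction, yeast (Saccharomyces cerevisiae BJ5465) displaying a synthetic nanobody library were stained at 4 °C for 1 hour with 10% biotinylated, detergent-solubilized Sf9 membrane reagent. Streptavidin microbeads enriched the stained cells before FACS sorting into low and high (top ~1%) gates on anti-HA and streptavidin fluorescence. Each clone's polyreactivity label reflects its gate of origin.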

Sequence	polyreactivity (PSR sort gate)
QVQLVESGGGLVQAGGSLRLSCAASGFILYSYAMGWSRQAPGKEREFVSVISRGGGRTYYADSVKGRFTISRDNAKNTVYLQMNSLKPEDTAVYYCAAGSRSPHWYTRELDYWGQGTQVTVSS	low polyreactivity
QVQLVESGGRLVQAGGSLRLSCAASGRIFLNYDMGWYRQAHGKERELVAAITWSTGSTYADSVKGRFTISRDNAKNNVYLKMNSLKPEVTAVYYCAAPWGQTDDRHKGGDYWGQGSQVTVSS	low polyreactivity
QVQLVESGGGLDQAGGSLRLSCAASGIIITIYAMVWYRQAPGKERELVAAISFSVGSTYYADSVKGRFTISRDNAKNTFFLQMNSLKPEDTAVYYCAAESYTYPFEYWGQGTQVTVSS	high polyreactivity
QVQLVESGGGLVQAGGSLRLSCAASASTLNGNAKAWYRQAPGKDRELVAAITTSGGSTYYADSVKGRFTISRDNAKNTDSLQMHSQNPEDTAVYYCNKLIGRRYGWANGYDYWGQGTQVTVSS	low polyreactivity
QVQLVESGGGLVQAGGSLRLSCAASGSIFGKYAMGWYRQAPGKERELVAAITIRGGSTYYADSVKGRFTISRDNAKNTVYLQMNSLKPEDTAVYYCNAVSKYYFGVDYWGQGTQVTVSS	high polyreactivity
QVQLEESGRGLVQAGGSLRLSCASSGIIFDGNAMGWYRQAAGKERELVAAITGGGSTDNADSVKGRFTISRDNGKYTVYLQMNSLKPEDTAVYYCAAVRSYYPGYYLGQGTQVTVSS	high polyreactivity
QVQLVESGGGLVQAGGSLRLSCAASGRIFSPNAMGWYRQAPGKERELVAVSSWRGVSTYFADSVKGRFTISRDNAKNTVYLQMNSLKPEDTAVYYCAVDNKSVYYWRQYYYWGQGTQVTVSS	high polyreactivity
QVQLVESGGGLVHAGGRLRLSCAASGRIFYTYTMGWYSQAPGKERELVATITDGTRTNYADSVKGRFTISRDNAKITVYLQMTSLQPEDTAVYYCNAAGRWHDLYRINYDYWGQGTKVTVSS	low polyreactivity
QVQLVESGGGLVQAGGSRRLSCAASGGTFPFNAMGWYSPAPGKERELVAAITFTTSSTYYADSVKGRFTMSRDNAKNTVYLQMTSLKPEDTAVDYCAVDYGWYSAYYRESDYWGQGTQVTVSS	low polyreactivity
QVQLVESGGGLVQAGGSLRLSCAASGRISGSYVMGWYRQAPGKESELVAGISGRGGSTYYADSVKGRFTISRDNAKNTVYLQMYSLKPEDTAVYYCAVVDRTSKGNSYYWGQGTQVTVSS	high polyreactivity
QVQLVESGGGLVQAGGSLRLSCAASGSIFWKNVMGWYRHAPGKERELVAGISQNGGSTTYADSVKGRFTISRDNAKNTVYLQMNSLKPEDTAVYYCAAKRYGPFKYGYWGQGTQVTVSS	high polyreactivity
QDQLVESGGGLVQAGGSLRLSCAASGRIFTGNVMGWYRQAPGKERELVAAITYRGGSTYYADSVKGRFTISRDNAKNTVFLQMNSLKPEDTAVYYCNTGWDPYGYDYWGQGTQVTVSS	low polyreactivity
QVQLVESGGGLVQAGGSLRLSCAASGSIFTYYAMGWYRQAPGKERELVAAISSDGGRTFYADSVKGRFTISRDNAKNTVYLQMNSLKPEDTAVYYCAAETNRFPGYGYWGQGTQVTVSA	low polyreactivity
QVQLVESGGGLVQAGGSLRLSCAASGYIFVRNAMGWYRQAPGKERELVAAISRTDGTTYYADSVKGRFTISRDNAKNTVYLQMNSLKPEDTAVYYCAADYLRAPYYQYEYWGQGTQVTVSS	low polyreactivity
QVQLVESGGGLVQAGGSLRLSCAASGRTFRRYAMGWYRQAPGKERELVAAISRNGGSTYYADSVKGRFTISRDNAKNTVYLQMNSLKPEDTAVYYCNAVTYGSYYYWGQGTQVTVSS	high polyreactivity
QVQLVETGGGLVHAGGSLRLSCAASGSIFGLYAMGWYRQAPGKERELVAAITVSGGSTYYADSVKGRFTISRDNAKNTVYLQLNSLKPEDTAVYYCAARAGWPLYQYYYWGQGTQVTVSS	high polyreactivity
QVQLVESGGGLVQAGGTLRLSCAASGRIFQYYDMGWYRQAPGKERELVAAITFSGGSTYYADSVKGRFTISRDNAKNTVYLQMNSLKPEDTAVYYCARGYWVYYPDGDYWGQGTQVTVSS	low polyreactivity
QVQLVESGGGLVQAGGSLRLSCAASGRTFFQYGMGWYRQAPGKERELVASITRSGGRTNYADSVKGRFTISRDNAKNTVYLQMNSLKPEDTAVYYCAAYYYGSAAYGYGYNYWGQGTQVTVSS	high polyreactivity
QVQLVESGGGLVQAGGSLRLSCAASGFTLFFYAMGWYRQAPGKEREFVASIRTSGGSTYYADSVKGRFTISRDNAKNTVYLQMNSLKPEDTAVYYCAARPLYGYGYWGQGTQVTVSS	high polyreactivity
QVHLEESGGGLVQAGGSLRISCAASGSTFYYYAMGWYRQAPGKERELVAAISNRDGRTYYADSVKGRFTISRDNAKNTVYLQMNSLKPEDSAVYYCNAYSYGHYYWGQGTQVTVSS	high polyreactivity
QVQLVESGGGIVQAGGSLRLSCAASGIIFDVYAMGLYRQAPGTERELVAAISKRGGRTYYADSVKWRFTISRDNAKNTVYLQMNSLKPEDTAVYYCAADGQYKHFDYWGQGTQVTVSS	high polyreactivity
QFQLVETGGGLVQAGGSLRLSCAASGSILGFNAMRWYIQAPGKESELGAAIRWSGDSTYADSVKGLFTMSRDNAKNTVYLQMNSLTQEDPSFYYCNARDTSYANWLSHFYYWGQGTQVTVSW	low polyreactivity

Sequence	polyreactivity (PSR sort gate)
QVQLVESGGGLVQAGGSLRLSCAASGSIFDYNAMGWYRQAPGKERELVASIRWSGGRTYYADSVKGRFTISRDNAKNTVYLQMNSLKPEDTAVYYCNRKPQEYVLQGSSNGYDYWGQGTQVTVSS	low polyreactivity
QVQLVESGGGLVQAGGSLRLSCAAYGFIFSYYTMGWYRQAPGKERELVAAISYSGGSTYYADSVKGRFTISRDNAKNNVYLQMNSLKPEDTAVYYCTAVAAATYDYWGQGTQVTVSS	high polyreactivity
QVQLVESGGGLVQAGGSLRLSCAASGSTFRFYAMGWYRQAPGKERELVAAISSGGSSTYYADSVKGRFTISRDNAKNTVYLQMNSLKPEDTAVYYCAADSYVVRWRERDYWGQGTQVTVSS	low polyreactivity
QVQLVESGGGLVQAGGSLRLSCAASGSTFEYYAMGWYRQAPGKERELVAVITNGGSTNYADSVKGRFTISRDNAKNTVYLQKNSLKPEDTAVYYCNAERRVFYYFDYDFWGLGTQVTVSS	low polyreactivity
QVHLVESGGGLVQAGGSLRLSCAASGSILQRNAMGWYRQAPGKERELVASITFSAGRTYYADSVKGRFTISRDNAKNTVYLQMKSLKPEDTAVYYCAADPYSYGARGARGDYWGQGTQVSVSS	low polyreactivity
QVQLVESGGGLVQAGGSLRLSCAASGRIFGNNAMGWYRQAPGKERELVATITRRGGSTYYADSVKGRFTISRDNAKNTVYLQMNSLKPEDTAVYYCAADRWPYWVAFYSWGQGTQVTVSS	high polyreactivity
QVQLVESGGGLVQAGGSLRLSCAASGRIFWEYAMGWYRQAPGKERELVAAITWRVGSTYYADSVKGRFTISRDNAKNTVYLQMNSLKPEDTAVYYCAAARYLSIYNYWGQGTQVTVSS	low polyreactivity
QVQLVESGGGLVQAGGSLRLSCAASGYTFPLYAMGLYRQAPGKEWELVADINIGGASTYYADSVKGRFTISRDHAKNTVYLQMNSLKPEDTAVYYCAKEYYDGYFPTFDYDYWGQGTQVTGSS	low polyreactivity
QVQLVESGGGLVQAGGSLRLSCAASGLIFSAYAMGWYRQAPGKERELVAGISRRGSTYYADSVKGRFTISRDNAKNTVYLQMNSLKPEDTAVYYCAAYFRVRFRASGYDYWGQGTQVTVSS	high polyreactivity
QVQLVESGGGLVQAGGSLRLSCAASGRTFTSYVMGWYIQAPGKERELVAAITRGGRSYYADSVKGRFTISRDNAKKTVYLQMNSLTPEDTAVYYCGARYSVSYNYWGQGTQVTVSS	high polyreactivity
QVQHVESGGGLVQAGCSLRLSCAASGSIFVIYAMGWYRQAPGKERELVAAIRSTGSSNYADSVKGRFTISRDNAKNTVYLQMNSLKPEDTAVYYCAAYRRRTYAVNIEGGYWGQGTQVTVSS	high polyreactivity
QVQLVESGVGLVQAGGSLRLSSAASGRILRQYAMGWYRQAPGKERELVAAITSSGGSTYYADSVKGRFTISRDNAKNTVYLQMNSLKPEDTAVYYCNARLRGAKYDYWGQGTQVTVSS	high polyreactivity
QVQLVESGGGLVQAGGSLRLSCAASGRTFRVYAIGWYRQAPGKEREFVATISVRGGSTYYADSVKGRFTISRDNAKNNVYLQMNSLKPEDTAVYFCAADSYPYVYALYDYWGQGTQVTVSS	low polyreactivity
QVQLVESGGGLVQAGGSLRLSCAASGSIFYIYAMGWYRQAPGKEREFVAAISWIGGSTYYADSVKGRFTISRDNAKNTVYLQMNSLKPEDTAVYYCAAETFTDYDYWGQGTQVTVSS	high polyreactivity
QVQLVESGGGLVQAGGRLRLSCAASGFTFLGSAMGWYRQAPGKERELVAAISSSGGSTYYADSVKGRFTISRDNAKNTVYLQMNSLKPEDTAVYYCAAYVAVPPSDYDYWGQGTQVTVSS	high polyreactivity
QVQLVESGGGLVPAGGSLRLSWAASGRIFPRNTMGWYRQAPGKERELVAAISVSGGSTYYADSVKGRFTISRDNAKNTVYLQMNSLKPEDTAVYYSAARSARLEYYYWGQGTQVTVSS	high polyreactivity
QVQLVESGGGLVQAGGSLRLSCAASGIIFFSNAMGWYRQAPGKERELVAAITGGSSTNYADSVKGRFTISRDNAKNTVYLQMNSLKPEENAVYYCNAPTKSTPRSEPIPYYEFDYWGQGTQVTVSS	low polyreactivity
QVQLVESGGGLVQAGGSLRLSCAASGRIFDYNVMGWYRQAPGKERELVADINGSGGGTNYADSVKGRFTISRDNAKNTVYLQINTLKPEDTAVYYCNADSYEYHVPYYDYRYDYCGQGTQVTVSS	low polyreactivity
QVQLVESGGGLVQAGGSLRLSCAASGIIFDSYAMGWYRQAPGKERELVAAITSRGGRTYYADSVKGRFTISRDNAKNTVSLQMNSLKPEDTAVYYCAARAKYDRRTDGTSGYDYWGQGTQVTVSS	low polyreactivity
QVQLVESGGGLVQAGGSLRLSCAASGRTFRLNAMGWYRQAPGKERELVAAITRGGRTNYADSVKGRFTISRDNAKNTVYLQMNSLKPEDTAVYYCAARYVERHTDYYYWGQGTQVTVSS	low polyreactivity
QVQLVESGGGLVQAGGSLRLSCSASGSIFSYYTMGWYRQAPGKERELVAAITGSGGRTYYADSVKGRFTISRDNAKNTVYLQMNSLKPEDTAVYYCNADRHYVPYYSRPRYIPYDYWGQGTQVTVSS	high polyreactivity
